From patent US20230183713A1, “SITE-SPECIFIC RECOMBINASES FOR EFFICIENT AND SPECIFIC GENOME EDITING” (TECHNISCHE UNIVERSITÄt DRESDEN, published 2023)
Substitutions are numbered along the chain they refer to. In names and notes the source's numbering stands.

T1: Cre recombinase monomer with E176H mutation
T1 chain: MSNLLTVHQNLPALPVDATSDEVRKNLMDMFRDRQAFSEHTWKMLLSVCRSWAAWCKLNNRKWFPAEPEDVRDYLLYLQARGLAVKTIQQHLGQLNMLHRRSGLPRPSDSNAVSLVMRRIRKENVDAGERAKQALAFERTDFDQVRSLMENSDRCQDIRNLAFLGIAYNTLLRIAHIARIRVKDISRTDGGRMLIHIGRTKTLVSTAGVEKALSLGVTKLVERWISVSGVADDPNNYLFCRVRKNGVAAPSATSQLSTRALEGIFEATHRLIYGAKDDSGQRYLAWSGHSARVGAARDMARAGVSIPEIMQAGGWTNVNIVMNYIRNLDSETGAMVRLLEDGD

T2: Cre recombinase monomer with K201R mutation
T2 chain: T1 chain with H176E, K201R

T3: Cre recombinase monomer with E176V mutation
T3 chain: T1 chain with H176V

T4: Cre recombinase monomer with Q311R mutation
T4 chain: T1 chain with H176E, Q311R

B1: Cre recombinase monomer with R173E mutation (protein)
chain: T1 chain with R173E, H176E
B2: Cre recombinase monomer with R173D mutation (protein)
chain: T1 chain with R173D, H176E
B3: Cre recombinase monomer with E176Y mutation (protein)
chain: T1 chain with H176Y
B4: Cre recombinase monomer with E176M mutation (protein)
chain: T1 chain with H176M
B5: Cre recombinase monomer with K201M mutation (protein)
chain: T1 chain with H176E, K201M
B6: Cre recombinase monomer with K201A mutation (protein)
chain: T1 chain with H176E, K201A
B7: Cre recombinase monomer with R173Y mutation (protein)
chain: T1 chain with R173Y, H176E
B8: Cre recombinase monomer with R173V mutation (protein)
chain: T1 chain with R173V, H176E
B9: Cre recombinase monomer with R292L mutation (protein)
chain: T1 chain with H176E, R292L
B10: Cre recombinase monomer with R292N mutation (protein)
chain: T1 chain with H176E, R292N
B11: Cre recombinase monomer with R292I mutation (protein)
chain: T1 chain with H176E, R292I
B12: Cre recombinase monomer with R292A mutation (protein)
chain: T1 chain with H176E, R292A
B13: Cre recombinase monomer with K201G mutation (protein)
chain: T1 chain with H176E, K201G
B14: Cre recombinase monomer with R292S mutation (protein)
chain: T1 chain with H176E, R292S
B15: Cre recombinase monomer with K201S mutation (protein)
chain: T1 chain with H176E, K201S
B16: Cre recombinase monomer with K201H mutation (protein)
chain: T1 chain with H176E, K201H
B17: Cre recombinase monomer with H289D mutation (protein)
chain: T1 chain with H176E, H289D
B18: Cre recombinase monomer with R292Q mutation (protein)
chain: T1 chain with H176E, R292Q
B19: Cre recombinase monomer with R292G mutation (protein)
chain: T1 chain with H176E, R292G
B20: Cre recombinase monomer with R292P mutation (protein)
chain: T1 chain with H176E, R292P
B21: Cre recombinase monomer with R292C mutation (protein)
chain: T1 chain with H176E, R292C
B22: Cre recombinase monomer with H289R mutation (protein)
chain: T1 chain with H176E, H289R
B23: Cre recombinase monomer with R292V mutation (protein)
chain: T1 chain with H176E, R292V
B24: Cre recombinase monomer with E176L mutation (protein)
chain: T1 chain with H176L
B25: Cre recombinase monomer with K201R mutation (protein)
chain: T1 chain with H176E, K201R
B26: Cre recombinase monomer with H289I mutation (protein)
chain: T1 chain with H176E, H289I
B27: Cre recombinase monomer with R173K mutation (protein)
chain: T1 chain with R173K, H176E
B28: Cre recombinase monomer with R292H mutation (protein)
chain: T1 chain with H176E, R292H
B29: Cre recombinase monomer with R292F mutation (protein)
chain: T1 chain with H176E, R292F
B30: Cre recombinase monomer with R292W mutation (protein)
chain: T1 chain with H176E, R292W
B31: Cre recombinase monomer with K201I mutation (protein)
chain: T1 chain with H176E, K201I
B32: Cre recombinase monomer with K201T mutation (protein)
chain: T1 chain with H176E, K201T
B33: Cre recombinase monomer with R173A mutation (protein)
chain: T1 chain with R173A, H176E

Biological target: T1, Cre recombinase monomer with E176H …

| Protein | Median dimer activity (recombination on loxP) [%] |
| --- | --- |
| B1 | 32 |
| B2 | 29 |

Biological target: T2, Cre recombinase monomer with K201R …

| Protein | Median dimer activity (recombination on loxP) [%] |
| --- | --- |
| B3 | 39 |
| B4 | 35 |
| B5 | 76 |
| B6 | 64 |

Biological target: T3, Cre recombinase monomer with E176V …

| Protein | Median dimer activity (recombination on loxP) [%] |
| --- | --- |
| B7 | 35 |
| B8 | 53 |
| B2 | 53 |

Biological target: T4, Cre recombinase monomer with Q311R …

| Protein | Median dimer activity (recombination on loxP) [%] |
| --- | --- |
| B3 | 79 |
| B9 | 93 |
| B4 | 82 |
| B10 | 95 |
| B11 | 97 |
| B12 | 96 |
| B13 | 90 |
| B14 | 97 |
| B7 | 92 |
| B15 | 95 |
| B5 | 93 |
| B16 | 94 |
| B17 | 97 |
| B18 | 70 |
| B19 | 97 |
| B20 | 76 |
| B21 | 93 |

| Protein | Median dimer activity (recombination on loxP) [%] |
| --- | --- |
| B22 | 79 |
| B23 | 95 |
| B6 | 95 |
| B24 | 40 |
| B25 | 98 |
| B1 | 80 |
| B26 | 75 |
| B27 | 84 |
| B8 | 92 |
| B28 | 88 |
| B29 | 42 |
| B30 | 88 |
| B31 | 86 |
| B32 | 94 |
| B33 | 93 |
| B2 | 89 |
